Reference: patent US20180015176A1 (Bayer, published 2018)
Numbering of substitutions follows the chain as printed. Names and notes keep the numbering of the source.

B1: TPP-883 single-substitution variant A51Q of CDR-L2 (soluble Fab) (Fab, V domains shown)
VH: EVQLLESGGGLVQPGGSLRLSCAASGFTFSPYPMMWVRQAPGKGLEWVSYISPSGGKTHYADSVKGRFTISRDNSKNTLYLQMNSLRAEDTAVYYCARGGDGYFDYFDYWGQGTLVTVSS
VL: DIQMTQSPATLSASVGDRVTITCRASQSISSYLNWYQQKPGKAPKLLIYQASSLQSGVPSRFSGSGSGTDFTLTISSLQPEDFATYYCQQSYSSPGITFGPGTKVEIK
notes: Soluble Fab
B2: TPP-883 single-substitution variant M35I of CDR-H1 (soluble Fab) (Fab, V domains shown)
VH: B1 VH with M35I
VL: B1 VL with Q50A
notes: Soluble Fab; also called M351
B3: TPP-883 single-substitution variant G97F of CDR-L3 (soluble Fab) (Fab, V domains shown)
VH: B1 VH
VL: B1 VL with Q50A, G96F
notes: Soluble Fab
B4: TPP-883 single-substitution variant G102T of CDR-H3 (soluble Fab) (Fab, V domains shown)
VH: B1 VH with G102T
VL: B1 VL with Q50A
notes: Soluble Fab; also called best single-substitution variant G102T

The binders below were run against T1, TPP-599 (HUMAN-TNFRSF12Aaa28-80-hIgG1-Fc) (human, biotinylated with Biotin-LC-NHS (about 2-fold molar excess)) (assay: ELISA, soluble Fab on 2.5 nM biotinylated TWEAKR-Fc, anti-c-myc detection).
T1 construct: Dimeric Fc-fused extracellular domain of human TWEAKR, used biotinylated in the panning and the Fab ELISA; also called TWEAKR Fc; TWEAKR-Fc
Description: Affinity maturation was carried out by phage panning. Washed magnetic beads (DynaBeads) were incubated at 4° C. with 10 nM, 1 nM, 100 pM and 10 pM of biotinylated human antigen overnight and blocked with blocking buffer (PBS with 3% BSA, 0.05% Tween-20) at 4° C. for 1 h. The blocked Fab phage library was added to the blocked TWEAKR DynaBeads at 10 000-fold, 1000-fold and 100-fold excess, compared to the theoretical library complexity, and incubated at room temperature for 30 min. Thus, 12 strategies in total were followed (4 antigen concentrations×3 Fab phage titers). […] For the expression of soluble Fab, the phagemide vector was digested with MluI to remove the gene III-membrane anchor sequence required for Fab display on the phage, and ligated again. 96 variants of each of the 12 selection pools were expressed as soluble Fabs and examined in an ELISA format. […] For efficacy maturation, HEK293 cells were transfected with an NF-kappaB reporter (BioCat, Cat. No. LR-0051-PA). Transfected cells were sown in F17 media (serum-free; Invitrogen) in white polylysine-coated 384-well plates (BD), and individual variants of the NNK-diversified position antibody (human IgG1) libraries were expressed transiently in mammalian cells. The next day, NF-kappaB reporter cells were stimulated with the expressed single-NNK antibody variants for 6 h, and a luciferase assay was then carried out by standard methods.

Binding result, binds:
B1
B2
B3
B4
